Experimental findings from patent US20230250176A1 (DRAGONFLY THERAPEUTICS, published 2023) are described below.

What is called Kd is the concentration at which binding is half-saturated. Usually koff stands for a measure of how fast the partners let go of each other. The kon is the second-order rate constant of association.

Common to all, as to test: SPR (Biacore 8K), 37 C
For orientation: SPR reads the build-up and loss of mass on a sensor chip optically.

Experiment [1] concerns the target T1, purified recombinant human EGFR (human, UniProt P00533 25-645).
T1 construct: the whole entry is named; also called recombinant human epidermal growth factor receptor
Description: Measurements were performed using a Biacore8K SPR instrument.

Experiment [2] addresses purified recombinant cynomolgus monkey EGFR (cynomolgus monkey, UniProt A0A2K5WK39 25-645).
Description: (§1) Measurements were performed at physiological temperature of 37° C. using a Biacore8K SPR system.
Experiment [3] addresses purified recombinant rat EGFR (rat, UniProt A0ABK0LZB0 35-651).
Description: as §1
Experiment [4] concerns the target T1, purified recombinant human EGFR. The source holds these as a separate data set.
Description: as §1
Experiment [5] has as its target purified recombinant mouse EGFR (mouse, UniProt Q01279 25-647, limits assumed).
Description: as §1

Like-named read-outs stand apart in the source and are kept apart here.

B1: EGFR-TriNKET (bispecific antibody, human IgG1, kappa)
chain: DIQMTQSPSSLSASVGDRVTITCQASQDISNYLNWYQQKPGKAPKLLIYDASNLETGVPSRFSGSGSGTDFTFTISSLQPEDIATYYCQHFRHLPLAFGCGTKVEIKGGGGSGGGGSGGGGSGGGGSQVQLQESGPGLVKPSETLSLTCTVSGGSVSSGDYYWTWIRQSPGKCLEWIGHIYYSGNTNYNPRLKSRLTISIDTSKTQFSLKLSSVTAADTAIYYCVRDRVTGAFDIWGQGTMVTVSSGSDKTHTCPPCPAPELLGGPSVFLFPPKPKDTLMISRTPEVTCVVVDVSHEDPEVKFNWYVDGVEVHNAKTKPREEQYNSTYRVVSVLTVLHQDWLNGKEYKCKVSNKALPAPIEKTISKAKGQPREPRVYTLPPCRDELTKNQVSLTCLVKGFYPSDIAVEWESNGQPENNYKTTPPVLVSDGSFTLYSKLTVDKSRWQQGNVFSCSVMHEALHNHYTQKSLSLSPG
heavy: EVQLVESGGGLVKPGGSLRLSCAASGFTFSSYSMNWVRQAPGKGLEWVSSISSSSSYIYYADSVKGRFTISRDNAKNSLYLQMNSLRAEDTAVYYCARGAPIGAAAGWFDPWGQGTLVTVSSASTKGPSVFPLAPSSKSTSGGTAALGCLVKDYFPEPVTVSWNSGALTSGVHTFPAVLQSSGLYSLSSVVTVPSSSLGTQTYICNVNHKPSNTKVDKKVEPKSCDKTHTCPPCPAPELLGGPSVFLFPPKPKDTLMISRTPEVTCVVVDVSHEDPEVKFNWYVDGVEVHNAKTKPREEQYNSTYRVVSVLTVLHQDWLNGKEYKCKVSNKALPAPIEKTISKAKGQPREPQVCTLPPSRDELTENQVSLTCLVKGFYPSDIAVEWESNGQPENNYKTTPPVLDSDGSFFLYSWLTVDKSRWQQGNVFSCSVMHEALHNHYTQKSLSLSPG
light: DIQMTQSPSSVSASVGDRVTITCRASQGISSWLAWYQQKPGKAPKLLIYAASSLQSGVPSRFSGSGSGTDFTLTISSLQPEDFATYYCQQGVSFPRTFGGGTKVEIKRTVAAPSVFIFPPSDEQLKSGTASVVCLLNNFYPREAKVQWKVDNALQSGNSQESVTEQDSKDSTYSLSSTLTLSKADYEKHKVYACEVTHQGLSSPVTKSFNRGEC
notes: also called EGFR-TriNKET-3
Consider B1, for which the Kd in experiment [1] amounted to 4.7 nM; in experiment [2], 5.9 nM; in experiment [4], 4.7 nM. For the same molecule, the koff in experiment [1] amounted to 0.00095 s⁻¹; in experiment [2] it was 0.001 s⁻¹; in experiment [4] it was 0.00095 s⁻¹. Besides, the kon amounted to 200000 M⁻¹ s⁻¹ in experiment [1], 180000 M⁻¹ s⁻¹ in experiment [2] and 200000 M⁻¹ s⁻¹ in experiment [4]. The binding result in experiment [3] and in experiment [5] was “no binding” each time.
